These results are taken from US20170101469A1 (FOURTH MILITARY MEDICAL UNIVERSITY, published 2017).

Broadly, the Kd is the equilibrium constant for the complex coming apart. Low readings indicate tighter binding, high ones weaker binding. The term koff denotes the rate constant with which the complex falls apart. The low end stands for slow dissociation, the high end for fast dissociation. What is called kon is a measure of how fast the partners come together. High values mean faster complex formation, low ones slower complex formation.

Assay [1] addresses T1, human CD147 antigen (human, UniProt P35613-2 22-205, limits assumed).
T1 sequence (looked up): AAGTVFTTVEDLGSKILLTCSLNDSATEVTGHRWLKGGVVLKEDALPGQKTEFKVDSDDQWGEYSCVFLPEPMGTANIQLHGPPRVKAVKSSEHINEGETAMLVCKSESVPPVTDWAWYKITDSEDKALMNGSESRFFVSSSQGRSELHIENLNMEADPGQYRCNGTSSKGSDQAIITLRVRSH
Briefly: SPR (ProteOn XPR36), antibody immobilised on a GLC chip, human CD147 antigen injected at 0.375-6 nM, 25 C. As for the experimental part:
(§1) The affinity (KD) for the binding of human CD147 antigen to selected antibodies was measured by Surface plasmon resonance analysis on a multi-SPR array system (ProteOn XPR36™, Bio-Rad). Data analysis was performed using ProteOn Manager Software (Bio-Rad). Briefly, the running buffer PBST (0.005% Tween-20 in PBS) was used continuously throughout the entire experiment at 25° C. A ProteOn GLC sensor chips (Bio-Rad) was activated for 6 min using a mixture of 0.2M EDC and 5 mM sulfo-NHS at a flow rate of 20 μl/min, followed by diluting 260 μl of 10 μg/mL each antibody in 10 mM acetate buffer at pH 4.5. The surface of the sensor chip was then deactivated with 150 μl of IM Ethanolamine Hydrochloride (pH 8.5). The sensor surface was regenerated through a wash (about 3 min) with HBS-EP buffer until the baseline was restored. A reference cell without antibodies was prepared by a similar procedure. 5 different concentrations of human CD147 antigen (0.375, 0.75, 1.5, 3, and 6 nM) were injected in channels 1 to 5, respectively, at flow rate of 50 μl/min, 3 min. A reference channel was prepared in the same manner without injection of CD147 antigen. The SPR binding responses were collected and analyzed using the ProteOn data manager program.
Two sets of experiments were performed, in the first set of experiments, the human CD147 binding affinity of HAb18 and Metuzumab were compared (data shown in FIG. 3A), in the second set of experiments the human CD147 binding affinity of cHAb18 and Metuzumab were compared (data shown in FIG. 3B).

In assay [2] the target is T1, human CD147 antigen. Description: SPR, ProteOn XPR36, antibody amine-coupled to GLC chip, human CD147 0.375-6 nM as analyte, 25 C; first set of experiments (FIG. 3A). The method, then:
as §1, with “program. […]” for “program.”
A general note: In SPR one partner is held on a chip, and binding of the other changes the refractive index at the surface.

Assay [3] has as its target T1, human CD147 antigen. Briefly: SPR, ProteOn XPR36, antibody amine-coupled to GLC chip, human CD147 0.375-6 nM as analyte, 25 C; second set of experiments (FIG. 3B). As for the experimental part: as §1, with “program. […]” for “program.”

B1: Metuzumab (antibody, human IgG1, kappa, V domains shown)
VH: EVKLEESGGGLVQPGGSMKLSCVASGFTFSDAWMDWVRQSPEKGLEWVAEIRSKANNHAPYYTESVKGRFTISRDDSKSIIYLQMNNLRAEDTGIYYCTRDSTATHWGQGTLVTVSA
VL: SIVMTQTPTFLVVSAGDRVTITCKASQSVINDVAWYQQKPGQSPKLLIFYASNRNTGVPDRFTGSGYGTDFTFTISTVQAEDLAVYFCQQDYSPPFTFGSGTKLEIKR
modifications: N-linked Mannose-5 oligosaccharide in the Fc region, no fucose or xylose residue detected (site not numbered in the filing)
notes: Human-mouse chimeric IgG1 made in acetyl-glucosamine transferase deficient CHO K1 MAGE1.5 cells; only the glycoform differs; Residues 1-16 are left out on that basis; also called HcHAb18; glycosylation modified chimeric antibody Metuzumab
On to B1, for which the dissociation constant Kd was 362 pM in assay [1], 321 pM in assay [2] and 429 pM in assay [3]. In assay [1], the koff turned out to be 0.000417 s⁻¹. Further, the kon in assay [1] came out at 1.15e+06 M⁻¹ s⁻¹.

B2: cHAb18 (antibody, human IgG1, kappa, V domains shown)
VH: B1 VH
VL: B1 VL
modifications: N-linked fucosylated oligosaccharides, G0F, G1F and G1F' glycoforms (site not numbered in the filing)
notes: Human-mouse chimeric IgG1 made in CHO K1 cells; also called chimeric antibody cHAb18; cHAb18 mAb
The molecule B2 returned a Kd in assay [3] of 475 pM.

B3: HAb18 (antibody, V domains shown)
VH: EVKLEESGGGLVQPGGSMKLSCVASGFTFSDAWMDWVRQSPEKGLEWVAEIRSKANNHAPYYTESVKGRFTISRDDSKSIIYLQMNNLRAEDTGIYYCTRDSTATHWGQGT
VL: B1 VL
notes: Murine monoclonal antibody from hybridoma CGMCC NO; 0426; The variable domains are tied to HAb18 through cHAb18, whose variable domains are 'derived from HAb18'; also called original mouse antibody HAb18; anti-CD147 murine monoclonal antibody HAb18
In assay [1], B3 came in with an equilibrium dissociation constant (Kd) of 321 pM, a koff of 0.000351 s⁻¹ and a kon of 1.09e+06 M⁻¹ s⁻¹. In addition, in assay [2], the Kd stood at 362 pM.
